The target in test [1] is T1, Dimeric Monkey Ang-2FD conjugated to human IgG1 (monkey (Macca fascicularis); human).
T1 construct: also called Monkey Ang-2FD-hFc
The test is described as follows: SPR, captured Ab, RT. The procedure:
(§1) Antibody was captured on a goat anti-mouse IgG polyclonal antibody surface, a goat anti-human κ polyclonal antibody (Southern Biotech, Birmingham, Ala.) surface or a goat anti-human IgG polyclonal antibody (Jackson Immuno Research Lab, West Grove, Pa.) surface created through direct amine coupling to a BIACORE™ CM5 sensor chip to form a captured antibody surface. […] Antigen-antibody binding and dissociation were monitored in real time at room temperature. Kinetic analysis was performed to calculate KD and half-life of antigen/antibody complex dissociation.
(In SPR one partner is held on a chip, and binding of the other changes the refractive index at the surface.)

In test [2] the target is T2, Dimeric Human Ang-2FD conjugated to human IgG1 (human).
T2 construct: also called Human Ang-2FD-hFc; hAng-2FD-hFc
Description: SPR, captured Ab, RT. The procedure: as §1

The target of test [3] is T3, Dimeric Mouse Ang-2FD conjugated to human IgG1 (mouse (Mus musculus); human).
T3 construct: also called Mouse Ang-2FD-hFc
The test is described as follows: SPR, captured Ab, RT. The procedure: as §1

Test [4] deals with T1, Dimeric Monkey Ang-2FD conjugated to …. Description: competition ELISA, 16.67 nM Ab, coated hTie-2-mFc. The procedure: (§2) The plate was then blocked with PBS (Irvine Scientific, Santa Ana, Calif.) containing 0.5% BSA (Sigma-Aldrich Corp., St. Louis, Mo.) for one hour at room temperature. […] Human, mouse or monkey Ang-2FD protein conjugated to human IgG (Ang-2FD-hFc) were added to final concentrations of 2 nM, 8 nM, or 2 nM respectively and incubated for one hour at room temperature. The antibody/Ang-2FD-Fc mixture was then added to the plate containing hTie-2-mFc and incubated for one hour at room temperature. Detection of Ang-2FD-hFc bound to hTie-2-mFc protein was determined with Horse-Radish Peroxidase (HRP) conjugated to a-human IgG antibody (Jackson Immuno Research Lab, West Grove, Pa.) and developed by standard colorimetric response using tetramethylbenzidine (TMB) substrate (BD Biosciences, San Jose, Calif.). Absorbance was read at OD₄₅₀ for 0.1 sec.

Test [5] has as its target T2, Dimeric Human Ang-2FD conjugated to …. Description: competition ELISA, 16.67 nM Ab, coated hTie-2-mFc. The procedure:
as §2

Test [6] addresses T3, Dimeric Mouse Ang-2FD conjugated to …. Description: competition ELISA, 16.67 nM Ab, coated hTie-2-mFc. The procedure: as §2
Test [7] deals with T4, wild-type human Ang-2 (hAng-2-WT) (human, UniProt O15123 19-496).
T4 construct: called full-length wild-type; also called Full-length wild-type human Ang-2
T4 sequence: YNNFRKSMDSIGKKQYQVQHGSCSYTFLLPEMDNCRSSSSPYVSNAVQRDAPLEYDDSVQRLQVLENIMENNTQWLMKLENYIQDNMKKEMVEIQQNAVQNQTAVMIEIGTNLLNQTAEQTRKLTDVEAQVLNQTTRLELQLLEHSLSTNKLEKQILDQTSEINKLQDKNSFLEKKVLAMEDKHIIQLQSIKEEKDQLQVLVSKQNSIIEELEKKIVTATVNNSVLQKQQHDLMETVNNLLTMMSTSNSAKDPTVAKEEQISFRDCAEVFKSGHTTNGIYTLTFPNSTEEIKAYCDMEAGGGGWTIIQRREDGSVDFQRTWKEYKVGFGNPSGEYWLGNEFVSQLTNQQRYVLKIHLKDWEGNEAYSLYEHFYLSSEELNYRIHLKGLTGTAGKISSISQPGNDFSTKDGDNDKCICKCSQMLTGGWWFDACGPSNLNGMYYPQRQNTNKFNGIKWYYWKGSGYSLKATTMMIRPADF
The test is described as follows: SPR, captured Ab.

In test [8] the target is T5, Monomeric hAng-2FD (human, UniProt O15123 282-496).
T5 construct: also called fibrinogen-like domain of human Ang2; Human Ang-2FD
T5 sequence: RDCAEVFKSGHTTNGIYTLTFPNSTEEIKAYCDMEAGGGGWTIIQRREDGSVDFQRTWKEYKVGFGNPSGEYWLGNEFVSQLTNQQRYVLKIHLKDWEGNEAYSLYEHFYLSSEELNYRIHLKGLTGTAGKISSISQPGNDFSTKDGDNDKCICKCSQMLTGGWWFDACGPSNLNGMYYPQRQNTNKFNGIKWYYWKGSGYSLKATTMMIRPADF
The test is described as follows: SPR, captured Ab.

B1: H1M724N (antibody, V domains shown)
VH: QVQLVESGGGVVQPGRSLRLSCAASGFTLSNYGMHWVRQAPGKGLEWVAVIWHDGSNTYYADSVKGRFTISRDNSKNTLYLQMNSLRAEDTAVYYCTREGLDFWSGYYPNWFDPWGQGTLVTVSS
VL: DIQMTQSPSSLSASVGDRVTITCRASQGIRNDLGWYQQKPGKAPKRLIYAASNLQGGVPSRFSGSGSGTEFTLTISSLQPEDFAAYYCLQHNIYPLTFGGGTKVEIK
The Kd is the free concentration of one partner at which half of the binding sites on the other are occupied at equilibrium, for simple one-to-one binding. As for B1, the Kd in test [1] worked out at 0.73 nM; in test [2], 0.179 nM; in test [3], 0.694 nM; in test [7], 0.0331 nM; in test [8] it was 1.75 nM. The T1/2 in test [1] was 25.7 min; in test [2], 42.7 min; in test [3], 16 min; in test [7], 568 min; in test [8], 17.4 min. In addition, the results for the “Percent Blocking of Ang-2FD Binding to Tie-2” value (from here on “Percent Blocking”) in test [4], in test [5] and in test [6] were 95.2%, 99.5% and 96.6%, respectively.

B2: H1M728N (antibody, V domains shown)
VH: EVQLVESGGDLVQPGGSLRLSCTASGFTFSKYWMTWVRQAPGRGLEWVANIKEDGNEKYFLDSVKGRFTISRDNAKDLLFLQMNSLRGEDTAVYYCVRDRGIEVAGPFDYWGQGTLVTVSS
VL: DIQMTQSPSTLSASVGDRVTVTCRASQTIINWLAWYQQKPGKAPKLLISKASSLESGVPSRFSGSGSGTEFTLTISSLQPDDFATYYCQQYNRYWTFGQGTMVEIK
In the case of B2, the Kd in test [1] worked out at 1.58 nM; in test [2], 0.137 nM; in test [3], 5.65 nM; in test [7], 0.0338 nM; in test [8] it was 1.17 nM. For the same molecule, the T1/2 in test [1] amounted to 69.5 min; in test [2], 58.4 min; in test [3] it was 9.9 min; in test [7], 725 min; in test [8], 33.9 min. For the same molecule, the “Percent Blocking” value in test [4] worked out at 97.1%; in test [5], 98.5%; in test [6] it was 83.9%.

B3: H2M730N (antibody, V domains shown)
VH: EVQLVESGGGLVQPGGSLRLSCAASGFAFRSYWMTWVRQAPGKGLEWVANIQQDGNDKYYVDSVKGRFTISRDNAKNSLYLQMNSLRAEDTAVYYCARDTGIAEAGPFDYWGQGTLVTVSS
VL: DIQMTQSPSTLSASVGDRVSITCRASQTIISWLAWYQQKPGKAPRLLIYKASSLESGVPSRFSGSGSGTEFTLTINSLQPDDFATYYCQQYNRYWTFGQGTKVEIK
In the case of B3, the Kd in test [1] worked out at 0.842 nM; in test [2], 0.21 nM; in test [7] it was 0.0492 nM; in test [8] it was 2.06 nM. Also, the T1/2 came out at 36.6 min in test [1], 47 min in test [2], 519 min in test [7] and 24.4 min in test [8]. The “Percent Blocking” value worked out at 97.3% in test [4], 98.9% in test [5] and 55% in test [6].

B4: H2M750N (antibody, V domains shown)
VH: QVKLVESGGGVVQPGRSLRVSCAASGFTFSSYGMHWVRQAPGKGLEWLAIIWYDGDNKYYSDSVKGRFTISRDNSKNTLYLQMNSLRAEDTAEYYCVRDASIASRFLDYWGQGTLVTVSS
VL: DIQMTQSPSSLSASIGDRVTITCRATQDINNYLAWFQQKPGKAPKSLIYATSNLQSGVPSKFSGSGSGTDYTLTISSLQPEDFSTYYCQQYHSYPLTFGGGTKVEIK
For the molecule B4, the Kd in test [1] came to 1.47 nM; in test [2] it was 0.362 nM; in test [7], 0.0408 nM; in test [8], 4.42 nM. For the same molecule, the T1/2 in test [1] was found to be 23 min; in test [2], 32.2 min; in test [7], 991 min; in test [8], 21.5 min. Moreover, the “Percent Blocking” value in test [4] is 97.4%; in test [5], 99.4%; in test [6] it was 53.7%.
